Data taken from the supplement of paper PMC10567573.
± gives the standard deviation.

Assay: protein stability index of a GFP-peptide fusion (GPS, HEK-293T) (PSI 1-6); higher = more stable
[1] = treatment: DMSO, c terminus: a fixed tail appended
[2] = treatment: MLN4924 1 uM, 8 h, c terminus: a fixed tail appended
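Also: 24-mer peptide tiles fused after GFP, lentivirally expressed, FACS-sorted into six equal bins by GFP/DsRed ratio, decoded by Illumina sequencing, PSI is the read-weighted mean bin number.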

Sequence | protein stability index [1] | protein stability index [2] | protein stability index (treatment: DMSO, c terminus: native) | protein stability index (treatment: MLN4924 1 uM, 8 h, c terminus: native)
QAFRAIDRGDYYLEGYRDNAYKDL [PCMTD1] | 2.85 ± 0.19 | 2.98 ± 0.53 | – | –
QARYHDTPYKPPAGRAAAPELSYR [MYORG] | 3.69 ± 0.15 | 3.85 ± 0.13 | – | –
QATLPVGSPSRPLSRRQLCPLTPG [C2CD2L] | 3.61 ± 0.33 | 3.74 ± 0.14 | – | –
QCQEAEQARAELTAQHQRRLAAIA [FBF1] | 4.34 ± 0.05 | 4.28 ± 0.15 | – | –
QDGVLDLSTKKSPCAGSTSLSHSP [LCOR] | 4.95 ± 0.14 | 4.96 ± 0.2 | – | –
QDKPYKCTDCGKSFNHNAHLTVHK [ZNF8] | 3.71 ± 0.27 | 3.72 ± 0.41 | – | –
QDQPSEAATGGATLAQTISEAAIG [HDAC6] | 5.09 ± 0.23 | 5.35 ± 0.15 | – | –
QDSKEMKQLLDSKIGFEIGIENEE [ZNF449] | 5.35 ± 0.37 | 5.37 ± 0.47 | – | –
QENESLFTFLGKKCVTMSSAVVQL [WASL] | 2.29 ± 0.34 | 2.32 ± 0.039 | – | –
QEPQSPQKLNPGFDLAKGNAGKVN [PLAGL1] | 5 ± 0.2 | 4.89 ± 0.39 | – | –
QESKNQVHRRGEYNVYSTFQSHEP [PPP2R2B] | 3.72 ± 0.38 | 4.2 ± 0.22 | – | –
QFQEALEELAKKRFKDKSSEEAVR [TPPP] | 3.49 ± 0.38 | 3.64 ± 0.39 | – | –
QFTMGGPAISMASPMSIPTNTMHY [CARM1] | 2.54 ± 0.21 | 2.68 ± 0.18 | – | –
QGPMSQRRENYGVPPRRATISSWR [RBMY1A1] | 3.68 ± 0.22 | 3.57 ± 0.36 | – | –
QGSLSNTYLSKVDPDGKKIKQIQQ [FBXO33] | 4.28 ± 0.31 | 4.34 ± 0.18 | – | –
QIFANTVDNARIVLQIDNARLAAD [KRT18] | 2.78 ± 0.28 | 2.75 ± 0.33 | – | –
QKAVKSCLVCQASFCELHLKPHLE [TRIM29] | 3.86 ± 0.19 | 3.86 ± 0.25 | – | –
QKRSRAIHSSDEGEDQAGDEDEDD [WAS] | 5.69 ± 0.21 | 5.57 ± 0.24 | – | –
QLAHMVKEQEETIQRIDENVLGAQ [STX5] | 4.81 ± 0.45 | 4.96 ± 0.21 | – | –
QLTNTSGTVIGVTSCIVIILIIIS [NETO1] | 2.43 ± 0.27 | 2.43 ± 0.28 | – | –
QLWSNVTPLTFTKVSEGQADIMIS [MMP1] | 2.58 ± 0.24 | 2.66 ± 0.43 | – | –
QNCLWTLRNLSDAATKQEGMEGLL [CTNNB1] | 3.23 ± 0.28 | 3.04 ± 0.18 | – | –

Sequence | protein stability index [1] | protein stability index [2] | protein stability index (treatment: DMSO, c terminus: native) | protein stability index (treatment: MLN4924 1 uM, 8 h, c terminus: native)
QNLQEEKERKLECLPPEPSPDDPE [FAF2] | 5.44 ± 0.37 | 5.46 ± 0.46 | – | –
QNRYLDGMVRAHGVRVSVPCPSTT [BET1L] | 3.02 ± 0.37 | 3.21 ± 0.44 | – | –
QNTHLTRHQRTHTGEKPYQCNICG [ZNF263] | 4.01 ± 0.27 | 4.19 ± 0.32 | – | –
QPMCEEHEEERINIYCLNCEVPTC [TRIM55] | 4.43 ± 0.2 | 4.31 ± 0.22 | – | –
QPWMVIEGIRQTEYTLTGLKFDMK [FSD1] | 2.29 ± 0.35 | 2.52 ± 0.49 | – | –
QQDDSDEYDDDDSAASTSFQPQPV [ZNF207] | 5.4 ± 0.18 | 5.37 ± 0.18 | – | –
QQERNDTNFHGVCMFCNEEFLGNR [ZNF277] | 2.96 ± 0.34 | 2.99 ± 0.6 | – | –
QQYQSQAKQLFRKLNEQSPTRCTL [SEC22B] | 3.46 ± 0.073 | 3.44 ± 0.27 | – | –
QRAKCKDPQLEIAYRGNCKDVSRC [SMOC2] | 3.85 ± 0.21 | 4 ± 0.14 | – | –
QRIKSQERETEATRGRGGLLRDHI [MOG] | 4.59 ± 0.18 | 4.78 ± 0.11 | – | –
QSGCLYRLRALGERHTMDLTVEGF [TMEM120A] | 2.12 ± 0.55 | 2.27 ± 0.2 | – | –
QSHPHLVAEAFRALASAQCPQFGI [SPOPL] | 2.35 ± 0.4 | 2.16 ± 0.023 | – | –
QSLEGDTTKGTSEMSEKRGPTSSN [MLH1] | 5.54 ± 0.18 | 5.43 ± 0.28 | – | –
QTGDLLSTFHTISPSFQLKAAALP [PLAGL1] | 2.6 ± 0.22 | 2.67 ± 0.22 | – | –
QTLKAMVQAWPFTCLPLGVLMKGQ [PRAME] | 2.65 ± 0.85 | 3.03 ± 0.38 | – | –
QTQVKIWFQNKRSKFKKLMKQGGA [DLX1] | 2.36 ± 0.32 | 2.1 ± 0.42 | – | –
QTWKLFSSHMNIDITDDCICDLAR [PPEF2] | 2.25 ± 0.35 | 2.06 ± 0.32 | – | –
QVHDDDLLSSSEEECKDRERPMYG [EMD] | 5.49 ± 0.22 | 5.41 ± 0.13 | – | –
QVQSLITNVESQLAEIRSDLERQN [KRT33B] | 3.85 ± 0.22 | 3.91 ± 0.1 | – | –
QVRSAAVQLIWVVSQLYPESIVPI [INTS4] | 3.29 ± 0.32 | 2.9 ± 0.32 | – | –
QYALELLTVYAWERGSMKTHFNTA [OAS1] | 3 ± 0.24 | 2.86 ± 0.43 | – | –
QYHHSKIRNRGYNLIYRSTRHLKR [TMEM192] | 3.07 ± 0.25 | 2.98 ± 0.091 | – | –

Sequence | protein stability index [1] | protein stability index [2] | protein stability index (treatment: DMSO, c terminus: native) | protein stability index (treatment: MLN4924 1 uM, 8 h, c terminus: native)
QYLMASDMAGKIKLWDLRTTKCVR [DCAF4] | 2.26 ± 0.11 | 2.43 ± 0.26 | – | –
RAASENSQDALRVVSTSGEQMKVY [IKZF1] | 4.26 ± 0.57 | 4.78 ± 0.29 | – | –
RAPEVLLQSTYATPVDMWSVGCIF [CDK4] | 2.7 ± 0.28 | 2.35 ± 0.34 | – | –
RAPRSPGQVTPRGLRLRLPRRESL [C6orf223] | 4.19 ± 0.35 | 4.41 ± 0.25 | – | –
RARVKEKFSPEAFTEQLYRYVTKL [ALG2] | 2.36 ± 0.48 | 2.05 ± 0.46 | – | –
RCLHASQWPVCAACPVRKFWSVG [BRF1] | – | – | 2.4 ± 0.14 | 2.17 ± 0.34
RDSYGGPPRREPLPSRRDVYLSPR [RBMX] | 3.69 ± 0.36 | 3.97 ± 0.2 | – | –
RDVYLPAGKWRSYKGELFDKTPVL [MYORG] | 2.32 ± 0.3 | 2.51 ± 0.18 | – | –
REEMKLKECVSILPRKESPSVRSS [TNFSF13B] | 4.61 ± 0.14 | 4.73 ± 0.2 | – | –
RENSSDSPKELKRRNSSSSMSSRL [DLC1] | 5.13 ± 0.23 | 5.05 ± 0.3 | – | –
RESRGSTRGKRESESRGSSGRVKR [USP39] | 5.14 ± 0.32 | 5.24 ± 0.33 | – | –
REVFNEIYPVWTYSYLVLLFPVFL [SLC19A2] | 2.71 ± 0.61 | 2.62 ± 0.21 | – | –
RFNQVLKNLLHAEFLRVQEERILH [VPS39] | 2.47 ± 0.81 | 2.46 ± 0.38 | – | –
RFPLQEENSVTHHEVKCQGKPLAG [KMT5A] | 4.69 ± 0.27 | 4.55 ± 0.38 | – | –
RFRFGQDQLLLATGLNNGRIKIWD [WSB1] | 2.25 ± 0.33 | 2.5 ± 0.32 | – | –
RFYYQALSVAPQIGMPFNQLGTLA [SMG5] | 2.63 ± 0.6 | 2.55 ± 0.61 | – | –
RGCSVKIWTAHYDPGHCFAESREL [ALG2] | 2.21 ± 0.26 | 2.11 ± 0.52 | – | –
RGGGDPWTNGSGLALCQRYYHRGH [MCOLN1] | 3.08 ± 0.23 | 3.2 ± 0.28 | – | –
RGNTYALQTGPLLGRPDSLELQRQ [RSPH3] | 3.87 ± 0.15 | 3.9 ± 0.26 | – | –
RGSIQSRYISMSVWTSPRRLVELA [PRAME] | 2.52 ± 0.24 | 2.71 ± 0.3 | – | –
RGTPPRRHSFRKHLYLLRGLPGSG [N4BP2L1] | 2.64 ± 0.3 | 2.94 ± 0.21 | – | –
